Reference: the supplement of paper PMC10567573

B1: TRIM63 (parent)
chain: QEKKLSFIEALIQQYQEQLDKSTK

Variants of: B1
Experiment: protein stability index of a GFP-peptide fusion (GPS, HEK-293T) (PSI 1-6); higher = more stable
Settings: c terminus: a fixed tail appended
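Note: lentivirally expressed fusions sorted by FACS into six bins by GFP to DsRed ratio, PSI derived from sequencing read proportions per bin multiplied by bin number.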

Going from QEKKLSFIEALIQQYQEQLDKITK [S22I] to QEKKLSFIEALIQQYQEQLDKVTK [S22V], the protein stability index falls from 2.74 to 2.45.

First: QEKKLSFIEALIQQYQEQLDKQTK [S22Q]
Second: QEKKLSFIEALIQQYQEQLDKGTK [S22G]
The protein stability index of the first is higher: 2.43 for the first, 2.26 for the second.

Compared with QEKKLSFIEALIQQYQEQLDKNTK [S22N], QEKKLSFIEALIQQYQEQLDKATK [S22A] is lower in protein stability index: 2.89 for the first, 2.23 for the second.

Compared with QEKKLSFIEALIQQYQEQLDKMTK [S22M], QEKKLSFIEALIQQYQEQLDKPTK [S22P] is higher in protein stability index: 2.65 for the first, 3.1 for the second.

First: QEKKLSFIEALIQQYQEQLDCSTK [K21C]
Second: QEKKLSFIEALIQQYQEQLDMSTK [K21M]
The protein stability index of the first is higher: 2.29 for the first, 2.27 for the second.

Going from QEKKLSFIEALIQQYQEQLDDSTK [K21D] to QEKKLSFIEALIQQYQEQLDYSTK [K21Y], the protein stability index falls from 3.76 to 2.1.

Compared with QEKKLSFIEALIQQYQEQLDASTK [K21A], QEKKLSFIEALIQQYQEQLDGSTK [K21G] is lower in protein stability index: 2.92 for the first, 2.02 for the second.

Compared with QEKKLSFIEALIQQYQEQLDSSTK [K21S], QEKKLSFIEALIQQYQEQLDISTK [K21I] is higher in protein stability index: 2.78 for the first, 2.86 for the second.

Compared with QEKRLSFIEALIQQYQEQLDKSTK [K4R], QEKTLSFIEALIQQYQEQLDKSTK [K4T] is lower in protein stability index: 2.77 for the first, 2.49 for the second.

Compared with QEKNLSFIEALIQQYQEQLDKSTK [K4N], QEKPLSFIEALIQQYQEQLDKSTK [K4P] is lower in protein stability index: 3.32 for the first, 3.07 for the second.

Compared with QEKLLSFIEALIQQYQEQLDKSTK [K4L], QEKFLSFIEALIQQYQEQLDKSTK [K4F] is higher in protein stability index: 2 for the first, 2.18 for the second.

Going from QEKCLSFIEALIQQYQEQLDKSTK [K4C] to QEKKPSFIEALIQQYQEQLDKSTK [L5P], the protein stability index rises from 1.9 to 3.58.

Compared with QEKKNSFIEALIQQYQEQLDKSTK [L5N], QEKKTSFIEALIQQYQEQLDKSTK [L5T] is lower in protein stability index: 4.19 for the first, 2.69 for the second.

Compared with QEKKSSFIEALIQQYQEQLDKSTK [L5S], QEKKASFIEALIQQYQEQLDKSTK [L5A] is higher in protein stability index: 3.95 for the first, 4.08 for the second.

Compared with QEKKQSFIEALIQQYQEQLDKSTK [L5Q], QEKKESFIEALIQQYQEQLDKSTK [L5E] is higher in protein stability index: 3.34 for the first, 3.51 for the second.

First: QEKKFSFIEALIQQYQEQLDKSTK [L5F]
Second: QEKKCSFIEALIQQYQEQLDKSTK [L5C]
The protein stability index of the first is higher: 2.91 for the first, 2.69 for the second.

First: GEKKLSFIEALIQQYQEQLDKSTK [Q1G]
Second: CEKKLSFIEALIQQYQEQLDKSTK [Q1C]
The protein stability index of the first is lower: 2.31 for the first, 2.37 for the second.

Going from REKKLSFIEALIQQYQEQLDKSTK [Q1R] to VEKKLSFIEALIQQYQEQLDKSTK [Q1V], the protein stability index falls from 2.48 to 2.39.

Compared with HEKKLSFIEALIQQYQEQLDKSTK [Q1H], TEKKLSFIEALIQQYQEQLDKSTK [Q1T] is lower in protein stability index: 2.28 for the first, 2.23 for the second.

First: EEKKLSFIEALIQQYQEQLDKSTK [Q1E]
Second: IEKKLSFIEALIQQYQEQLDKSTK [Q1I]
The protein stability index of the first is higher: 2.74 for the first, 2.03 for the second.

First: QCKKLSFIEALIQQYQEQLDKSTK [E2C]
Second: QVKKLSFIEALIQQYQEQLDKSTK [E2V]
The protein stability index of the first is lower: 1.52 for the first, 1.74 for the second.

First: QTKKLSFIEALIQQYQEQLDKSTK [E2T]
Second: QSKKLSFIEALIQQYQEQLDKSTK [E2S]
The protein stability index of the first is higher: 2 for the first, 1.87 for the second.

Going from QFKKLSFIEALIQQYQEQLDKSTK [E2F] to QQKKLSFIEALIQQYQEQLDKSTK [E2Q], the protein stability index falls from 2.44 to 2.25.

First: QEKKLSFIEALIQQYQMQLDKSTK [E17M]
Second: QEKKLSFIEALIQQYQDQLDKSTK [E17D]
The protein stability index of the first is lower: 2.08 for the first, 3 for the second.

Going from QEKKLSFIEALIQQYQRQLDKSTK [E17R] to QEKKLSFIEALIQQYQWQLDKSTK [E17W], the protein stability index falls from 1.45 to 1.3.

Compared with QEKKLSFIEALIQQYQKQLDKSTK [E17K], QEKKLSFIEALIQQYQAQLDKSTK [E17A] is lower in protein stability index: 2.16 for the first, 2 for the second.

First: QEKKLSFIEALIQQYQCQLDKSTK [E17C]
Second: QEKKLSFIEALIQQYQTQLDKSTK [E17T]
The protein stability index of the first is lower: 2.47 for the first, 2.68 for the second.

Compared with QEKKLSFIEALIQQYQFQLDKSTK [E17F], QEKKLSFIEALIQQYQQQLDKSTK [E17Q] is higher in protein stability index: 2.25 for the first, 2.65 for the second.

First: QEYKLSFIEALIQQYQEQLDKSTK [K3Y]
Second: QEWKLSFIEALIQQYQEQLDKSTK [K3W]
The protein stability index of the first is higher: 2.88 for the first, 1.57 for the second.

Compared with QEGKLSFIEALIQQYQEQLDKSTK [K3G], QELKLSFIEALIQQYQEQLDKSTK [K3L] is lower in protein stability index: 3.03 for the first, 2.15 for the second.

Going from QETKLSFIEALIQQYQEQLDKSTK [K3T] to QEFKLSFIEALIQQYQEQLDKSTK [K3F], the protein stability index falls from 3.04 to 2.43.

Going from QEAKLSFIEALIQQYQEQLDKSTK [K3A] to QESKLSFIEALIQQYQEQLDKSTK [K3S], the protein stability index rises from 2.67 to 3.6.

First: QERKLSFIEALIQQYQEQLDKSTK [K3R]
Second: QEVKLSFIEALIQQYQEQLDKSTK [K3V]
The protein stability index of the first is higher: 2.84 for the first, 2.32 for the second.

Going from QEKKLSFIEALIQDYQEQLDKSTK [Q14D] to QEKKLSFIEALIQMYQEQLDKSTK [Q14M], the protein stability index falls from 3.17 to 2.44.

Going from QEKKLSFIEALIQIYQEQLDKSTK [Q14I] to QEKKLSFIEALIQLYQEQLDKSTK [Q14L], the protein stability index falls from 2.98 to 2.89.

Going from QEKKLSFQEALIQQYQEQLDKSTK [I8Q] to QEKKLSFTEALIQQYQEQLDKSTK [I8T], the protein stability index falls from 4.32 to 2.64.

Compared with QEKKLSFDEALIQQYQEQLDKSTK [I8D], QEKKLSFKEALIQQYQEQLDKSTK [I8K] is lower in protein stability index: 4.44 for the first, 4.17 for the second.

Compared with QEKKLSFMEALIQQYQEQLDKSTK [I8M], QEKKLSFWEALIQQYQEQLDKSTK [I8W] is lower in protein stability index: 3.96 for the first, 3.56 for the second.

Compared with QEKKLSFAEALIQQYQEQLDKSTK [I8A], QEKKLSFNEALIQQYQEQLDKSTK [I8N] is higher in protein stability index: 3.83 for the first, 5.18 for the second.

Compared with QEKKLSFLEALIQQYQEQLDKSTK [I8L], QEKKLSFIEALIQQYQEPLDKSTK [Q18P] is higher in protein stability index: 2.14 for the first, 3.31 for the second.

Going from QEKKLSFIEALIQQYQEYLDKSTK [Q18Y] to QEKKLSFIEALIQQYQEELDKSTK [Q18E], the protein stability index rises from 2.49 to 2.51.

Going from QEKKLSFIEALIQQYQEALDKSTK [Q18A] to QEKKLSFIEALIQQYQELLDKSTK [Q18L], the protein stability index falls from 2.37 to 2.25.

Going from QEKKLSFIEALIQQYQEHLDKSTK [Q18H] to QEKKLSPIEALIQQYQEQLDKSTK [F7P], the protein stability index rises from 1.79 to 4.36.

First: QEKKLSEIEALIQQYQEQLDKSTK [F7E]
Second: QEKKLSMIEALIQQYQEQLDKSTK [F7M]
The protein stability index of the first is higher: 4.38 for the first, 3.33 for the second.

First: QEKKLSRIEALIQQYQEQLDKSTK [F7R]
Second: QEKKLSAIEALIQQYQEQLDKSTK [F7A]
The protein stability index of the first is lower: 3.92 for the first, 4.05 for the second.

First: QEKKLSYIEALIQQYQEQLDKSTK [F7Y]
Second: QEKKLSGIEALIQQYQEQLDKSTK [F7G]
The protein stability index of the first is lower: 2.48 for the first, 4.64 for the second.

First: QEKKLSVIEALIQQYQEQLDKSTK [F7V]
Second: QEKKLSDIEALIQQYQEQLDKSTK [F7D]
The protein stability index of the first is lower: 3.45 for the first, 4.53 for the second.
